Source: PMC7319964, “The MiDAC histone deacetylase complex is essential for embryonic development and has a unique multivalent structure” (Nature Communications, 2020)

Target: the molecule itself
Test: cryo-EM structure; complex of HDAC1, MIDEAS ELM2-SANT and DNTTIP1 lacking the DNA-binding domain; 50 µM SAHA and 50 µM InsP6, glutaraldehyde cross-linked on ice; dimer map ~4 Å (C2) and tetramer map 4.5 Å (D2) from the same grids

B1: ELM2-SANT domain from MIDEAS (domain or fragment, UniProt Q6PJG2 717-887, looked up)
chain: VSIEPRINVGSRFQAEIPLMRDRALAAADPHKADLVWQPWEDLESSREKQRQVEDLLTAACSSIFPGAGTNQELALHCLHESRGDILETLNKLLLKKPLRPHNHPLATYHYTGSDQWKMAERKLFNKGIAIYKKDFFLVQKLIQTKTVAQCVEFYYTYKKQVKIGRNGTLT
notes: MIDEAS (ELMSAN1, c14orf43) ELM2-SANT domain; The tag is followed by a TEV protease cleavage site; TEV released the complex from the anti-FLAG resin; also called MIDEAS co-repressor protein; not shown: 10xHis, N-terminal, cleaved; 3xFLAG, N-terminal, cleaved
B1: binds.
